Laboratory results published in US20220089691A1 (NATIONAL DEFENSE MEDICAL CENTER, published 2022).

Target: T1, SARS-CoV spike protein as made in Vero E6 cells infected with SARS-CoV (SARS-CoV, UniProt P59594 14-1255)
T1 construct: whole, on cells
Experiment: IFA on Vero E6 cells infected with SARS-CoV

Row | Binder | binding result
1 | Monoclonal antibody (mAb) 8a-1 (antibody, V domains shown, also called clone 8a-1; first antibody) VH: EVQLQESGGGLVQPGGSLKLSCAASGFTFSSYTMSWVRQTPEKRLEWVAYISNGGGSISYPDTVKGRFTISRDNAKNTLYLHMSSLKSEDTAMYHCAREGLRPGDRDRYYAMDYWGQGTSVTVSS VL: DIVITQSPALMAAFPGDRVTITCSVSSSVSSSNLHWYRQKSETSPKPWIYGTSTLASGVPVRFSGSGSGTSYSLTISSMEAEDAATYYCQQWSSYPLTFGAGTKLELKR | binds
2 | Monoclonal antibody (mAb) 27b-2 (antibody, V domains shown, also called clone 27b-2; second antibody) VH: EVQLQESGGGLVKLGGSLKLSCAASGFTFSTYYMSWVRQTPEKRLELVAAINSNGGGTYYPDNVKGRFTISRDNAKNTLYLQMSSLKSEDTALYYCTNYFGSTYAMDYWGQGTSVTVSS VL: DIVLTQSPLSLPVSLGDQASISCRSSQSLVHSNGNTYLHWYLQKPGQSPKLLIYKVSNRFSGVPDRFSGSGLGTDFTLKIIRVEAEDLGVYFCSQNTHVPFTFGSGTKLEIKR | binds
